Measured values reported in the PETadex activity labels (doi:10.1007/s00253-011-3781-6).

Columns and labels:
Details in all cases: pH 6; 37 °C
p-NP-C2 = substrate: p-NP-C2
p-NP-C4 = substrate: p-NP-C4
p-NP-C6 = substrate: p-NP-C6
p-NP-C8 = substrate: p-NP-C8

B1: unnamed (protein)
chain: MSVTTPRRETSLLSRALRATAAAATAVVATVALAAPAQAANPYERGPNPTESMLEARSGPFSVSEERASRFGADGFGGGTIYYPRENNTYGAIAISPGYTGTQSSIAWLGERIASHGFVVIAIDTNTTLDQPDSRARQLNAALDYMLTDASSAVRNRIDASRLAVMGHSMGGGGTLRLASQRPDLKAAIPLTPWHLNKSWRDITVPTLIIGAEYDTIASVTLHSKPFYNSIPSPTDKAYLELDGASHFAPNITNKTIGMYSVAWLKRFVDEDTRYTQFLCPGPRTGLLSDVEEYRSTCPF
Km (p-NP-C2): 3220 µM
kcat (p-NP-C2): 2.06 s⁻¹
kcat/Km (p-NP-C2): 640 M⁻¹ s⁻¹
Km (p-NP-C4): 3410 µM
kcat (p-NP-C4): 4.48 s⁻¹
kcat/Km (p-NP-C4): 1310 M⁻¹ s⁻¹
Km (p-NP-C6): 2370 µM
kcat (p-NP-C6): 3.28 s⁻¹
kcat/Km (p-NP-C6): 1380 M⁻¹ s⁻¹
Km (p-NP-C8): 1870 µM
kcat (p-NP-C8): 2.45 s⁻¹
kcat/Km (p-NP-C8): 1310 M⁻¹ s⁻¹
